Measured values reported in article PMC3469465, “Muscle-Specific Splicing Factors ASD-2 and SUP-12 Cooperatively Switch Alternative Pre-mRNA Processing Patterns of the ADF/Cofilin Gene in Caenorhabditis elegans”.

Key:
[1] = biological target: T1, FLAG-SUP-12 (Caenorhabditis elegans, UniProt O45189 1-248); test: EMSA; 20 mM HEPES-KOH pH 7.9, 150 mM KCl, 5% glycerol (EMSA only), 1% Triton X-100, 1 mM DTT, 0.1 mM PMSF, 100 ng/ul E. coli tRNA, 50 ng/ul BSA, 30 min, 20 C; details: protein: recombinant; tags: FLAG; label: 32P (alpha-32P UTP, internal)
T1 sequence: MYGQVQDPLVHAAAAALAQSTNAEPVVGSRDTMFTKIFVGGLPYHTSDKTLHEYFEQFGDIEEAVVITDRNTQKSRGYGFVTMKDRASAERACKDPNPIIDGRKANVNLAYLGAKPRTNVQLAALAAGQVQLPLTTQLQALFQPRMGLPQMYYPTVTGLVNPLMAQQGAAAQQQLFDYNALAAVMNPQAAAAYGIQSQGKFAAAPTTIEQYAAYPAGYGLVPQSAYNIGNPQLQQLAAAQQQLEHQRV

[2] = biological target: T1, FLAG-SUP-12; test: EMSA; similar extent to WT; 20 mM HEPES-KOH pH 7.9, 150 mM KCl, 5% glycerol (EMSA only), 1% Triton X-100, 1 mM DTT, 0.1 mM PMSF, 100 ng/ul E. coli tRNA, 50 ng/ul BSA, 30 min, 20 C; details: protein: recombinant; tags: FLAG; label: 32P (alpha-32P UTP, internal)

## GGGAGACUAACCUAACCUAACCUAUGUGUGCCUGUUUUCUAG (ssRNA) [unc-60 intron 1A WT EMSA probe]
[1]
  binding result: binds

## GGGAGACAAACCAAACCAAACCUAUGUGUGCCUGUUUUCUAG (ssRNA) [unc-60 intron 1A M1 EMSA probe]
[2]
  binding result: binds
